From paper PMC7213981, “Enhancer architecture sensitizes cell specific responses to Notch gene dose via a bind and discard mechanism”

Columns and labels:
Su(H) [1] = molecular target: T1, Su(H) (Drosophila melanogaster, UniProt P28159 98-523); experiment: EMSA; both probes in the same reaction; Su(H) 10-320 nM, no co-activators; additive, slightly lower affinity than 2xCSL; Native PAGE EMSA, LICOR Odyssey CLx imaging; equal amounts of both probes in one reaction; buffer, salt, pH and temperature not stated (as in Uhl 2010, 2016); settings: protein: recombinant; label: 5' IRDye-800 on the complementary strand (primer S25)
T1 sequence (P28159 98-523): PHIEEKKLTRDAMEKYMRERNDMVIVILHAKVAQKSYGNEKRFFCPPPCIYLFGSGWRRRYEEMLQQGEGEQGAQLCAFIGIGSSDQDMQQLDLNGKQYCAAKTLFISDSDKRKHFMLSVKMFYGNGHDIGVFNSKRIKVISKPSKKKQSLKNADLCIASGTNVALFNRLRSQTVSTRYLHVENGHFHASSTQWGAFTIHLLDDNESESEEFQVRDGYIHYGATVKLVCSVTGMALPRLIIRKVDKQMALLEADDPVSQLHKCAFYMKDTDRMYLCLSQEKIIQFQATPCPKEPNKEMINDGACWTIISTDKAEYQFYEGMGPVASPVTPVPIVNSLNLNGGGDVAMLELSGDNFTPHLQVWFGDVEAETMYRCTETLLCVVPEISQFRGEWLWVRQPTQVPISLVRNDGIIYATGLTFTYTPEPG

[2] = molecular target: T2, Su(H);NICD;Mastermind (Mam) (Drosophila melanogaster;Drosophila …, UniProt P28159;P07207;P21519 98-523;1763-2412;87-307, ||); experiment: EMSA; both probes in the same reaction; 1 uM NICD/Mam; cooperative, less 2NCM complex than the mouse proteins; Native PAGE EMSA, LICOR Odyssey CLx imaging; equal amounts of both probes in one reaction; buffer, salt, pH and temperature not stated (as in Uhl 2010, 2016); settings: protein: recombinant;recombinant;recombinant; copies: 1;1;1; label: 5' IRDye-800 on the complementary strand (primer S25)
T2 sequence (P28159 98-523, chain 1 of 3): as the sequence (P28159 98-523) above
T2 sequence (P07207 1763-2412, chain 2 of 3): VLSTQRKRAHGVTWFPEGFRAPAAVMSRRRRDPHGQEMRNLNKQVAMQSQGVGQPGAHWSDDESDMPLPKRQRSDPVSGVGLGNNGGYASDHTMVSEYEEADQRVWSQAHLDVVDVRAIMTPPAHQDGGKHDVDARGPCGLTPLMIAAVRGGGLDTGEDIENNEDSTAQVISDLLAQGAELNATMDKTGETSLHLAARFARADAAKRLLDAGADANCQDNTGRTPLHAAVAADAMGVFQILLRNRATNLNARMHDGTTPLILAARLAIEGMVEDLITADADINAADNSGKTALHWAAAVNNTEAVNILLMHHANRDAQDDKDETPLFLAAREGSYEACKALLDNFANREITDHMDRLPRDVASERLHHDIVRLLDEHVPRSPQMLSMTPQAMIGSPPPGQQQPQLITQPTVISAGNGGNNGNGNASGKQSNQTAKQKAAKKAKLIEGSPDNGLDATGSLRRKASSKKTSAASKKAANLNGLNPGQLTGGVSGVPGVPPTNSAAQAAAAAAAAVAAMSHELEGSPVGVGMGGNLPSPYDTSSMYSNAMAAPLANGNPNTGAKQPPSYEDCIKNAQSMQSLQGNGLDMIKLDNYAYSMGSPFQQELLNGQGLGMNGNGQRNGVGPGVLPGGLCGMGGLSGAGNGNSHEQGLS
T2 sequence (P21519 87-307, chain 3 of 3): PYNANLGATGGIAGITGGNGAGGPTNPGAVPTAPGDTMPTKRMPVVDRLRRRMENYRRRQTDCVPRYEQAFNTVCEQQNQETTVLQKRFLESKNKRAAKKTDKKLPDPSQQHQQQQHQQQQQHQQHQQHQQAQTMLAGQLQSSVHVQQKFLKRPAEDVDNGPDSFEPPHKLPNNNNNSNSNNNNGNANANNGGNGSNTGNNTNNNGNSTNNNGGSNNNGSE

RBPJ (CSL) [3] = molecular target: T3, RBPJ (CSL) (mouse, UniProt P31266 53-474); experiment: EMSA; both probes in the same reaction; RBPJ 10-320 nM, no co-activators; additive, slightly lower affinity than 2xCSL; Native PAGE EMSA, LICOR Odyssey CLx imaging; equal amounts of both probes in one reaction; buffer, salt, pH and temperature not stated (as in Uhl 2010, 2016); settings: protein: recombinant; label: 5' IRDye-800 on the complementary strand (primer S25)
T3 sequence (P31266 53-474): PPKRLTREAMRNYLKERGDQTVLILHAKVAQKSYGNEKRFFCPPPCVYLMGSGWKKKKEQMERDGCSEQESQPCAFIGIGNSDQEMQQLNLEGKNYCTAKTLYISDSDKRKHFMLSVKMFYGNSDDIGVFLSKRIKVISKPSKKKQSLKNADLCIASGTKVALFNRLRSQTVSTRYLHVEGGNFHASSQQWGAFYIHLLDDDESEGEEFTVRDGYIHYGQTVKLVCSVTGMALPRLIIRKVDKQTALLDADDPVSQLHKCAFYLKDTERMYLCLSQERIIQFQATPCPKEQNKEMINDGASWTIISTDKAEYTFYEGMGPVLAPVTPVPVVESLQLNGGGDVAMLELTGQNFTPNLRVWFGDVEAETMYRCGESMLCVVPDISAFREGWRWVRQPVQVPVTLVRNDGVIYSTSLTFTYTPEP

RBPJ (CSL);N1ICD;MAML1 [4] = molecular target: T4, RBPJ (CSL);N1ICD;MAML1 (mouse;mouse;human, UniProt P31266;Q01705;Q92585 53-474;1744-2113;1-280, ||); experiment: EMSA; both probes in the same reaction; 1 uM NICD/MAML; cooperative, both sites preferentially filled; Native PAGE EMSA, LICOR Odyssey CLx imaging; equal amounts of both probes in one reaction; buffer, salt, pH and temperature not stated (as in Uhl 2010, 2016); settings: protein: recombinant;recombinant;recombinant; copies: 1;1;1; label: 5' IRDye-800 on the complementary strand (primer S25)
T4 sequence (P31266 53-474, chain 1 of 3): as the sequence (P31266 53-474) above
T4 sequence (Q01705 1744-2113, chain 2 of 3): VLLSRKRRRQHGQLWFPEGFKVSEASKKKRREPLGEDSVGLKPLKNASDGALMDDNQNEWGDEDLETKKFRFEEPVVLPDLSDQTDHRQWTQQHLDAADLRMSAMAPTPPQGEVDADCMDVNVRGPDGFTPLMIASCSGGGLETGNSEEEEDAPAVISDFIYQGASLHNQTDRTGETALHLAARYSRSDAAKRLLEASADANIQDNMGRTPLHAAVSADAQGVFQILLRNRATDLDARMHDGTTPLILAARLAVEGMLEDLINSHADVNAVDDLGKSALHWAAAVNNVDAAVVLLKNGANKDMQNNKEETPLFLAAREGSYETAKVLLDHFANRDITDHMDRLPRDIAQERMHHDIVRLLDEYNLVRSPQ
T4 sequence (Q92585 1-280, chain 3 of 3): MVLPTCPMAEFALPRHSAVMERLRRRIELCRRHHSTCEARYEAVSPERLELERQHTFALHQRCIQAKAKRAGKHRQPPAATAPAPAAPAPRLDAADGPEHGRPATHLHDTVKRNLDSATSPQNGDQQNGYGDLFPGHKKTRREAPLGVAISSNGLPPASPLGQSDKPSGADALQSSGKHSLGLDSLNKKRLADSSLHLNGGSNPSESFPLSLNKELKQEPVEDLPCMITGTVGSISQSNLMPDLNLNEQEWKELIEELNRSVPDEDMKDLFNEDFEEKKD

RBPJ (CSL) [5] = molecular target: T3, RBPJ (CSL); experiment: EMSA; both probes in the same reaction; RBPJ 10-320 nM, no co-activators; additive, slightly higher affinity than 1xSPS; Native PAGE EMSA, LICOR Odyssey CLx imaging; equal amounts of both probes in one reaction; buffer, salt, pH and temperature not stated (as in Uhl 2010, 2016); settings: protein: recombinant; label: 5' IRDye-700 on the complementary strand (primer S25)
Su(H) [6] = molecular target: T1, Su(H); experiment: EMSA; both probes in the same reaction; Su(H) 10-320 nM, no co-activators; additive, slightly higher affinity than 1xSPS; Native PAGE EMSA, LICOR Odyssey CLx imaging; equal amounts of both probes in one reaction; buffer, salt, pH and temperature not stated (as in Uhl 2010, 2016); settings: protein: recombinant; label: 5' IRDye-700 on the complementary strand (primer S25)
[7] = molecular target: T2, Su(H);NICD;Mastermind (Mam); experiment: EMSA; both probes in the same reaction; 1 uM NICD/Mam; additive, not cooperative, less preferred than 1xSPS; Native PAGE EMSA, LICOR Odyssey CLx imaging; equal amounts of both probes in one reaction; buffer, salt, pH and temperature not stated (as in Uhl 2010, 2016); settings: protein: recombinant;recombinant;recombinant; copies: 1;1;1; label: 5' IRDye-700 on the complementary strand (primer S25)
RBPJ (CSL);N1ICD;MAML1 [8] = molecular target: T4, RBPJ (CSL);N1ICD;MAML1; experiment: EMSA; both probes in the same reaction; 1 uM NICD/MAML; additive, not cooperative, less preferred than 1xSPS; Native PAGE EMSA, LICOR Odyssey CLx imaging; equal amounts of both probes in one reaction; buffer, salt, pH and temperature not stated (as in Uhl 2010, 2016); settings: protein: recombinant;recombinant;recombinant; copies: 1;1;1; label: 5' IRDye-700 on the complementary strand (primer S25)

Measured: binding result

B1: 1xSPS EMSA probe (dsDNA)
DNA 1: GCTACGTGGGAAAGGAGCAAACTGCGTTTCCCACGTTCGTAGTGCGGGCGTGGCT
DNA 2: AGCCACGCCCGCACTACGAACGTGGGAAACGCAGTTTGCTCCTTTCCCACGTAGC
binds: Su(H) [1] | [2] | RBPJ (CSL) [3] | RBPJ (CSL);N1ICD;MAML1 [4]

B2: 2xCSL EMSA probe (dsDNA)
DNA 1: CGAACGTGGGAAACCTAGGCTAGAGGCACCGTGGGAAACTAGTGCGGGCGTGGCT
DNA 2: AGCCACGCCCGCACTAGTTTCCCACGGTGCCTCTAGCCTAGGTTTCCCACGTTCG
binds: RBPJ (CSL) [5] | Su(H) [6] | [7] | RBPJ (CSL);N1ICD;MAML1 [8]
